Data: paper doi:10.1101/2022.08.19.504503

Target: Cdh23 with entire EC domains (Cdh23 EC 1-27) (UniProt Q99PF4)
Experiment: cross-linking

Substance: Cdh23 with entire EC domains (Cdh23 EC 1-27) (from UniProt Q99PF4 24-3354) (domain or fragment)
- stoichiometry N: 2
